Source: the supplement of paper PMC9233669
Variants at the floor of the assay were thinned out.

How the values were obtained:
biotinyl-Leu-oxazolone = assay: self-aminoacylation, catalytic enhancement (BLO) (fold over background); higher = more active; k-Seq, kA / k0A0; sequences stand for … in GGGAAUGGAUCCACAUCUACGAAUUC…UUCACUGCAGACUUGACGAAGCUG
In short: (§1)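 Mutagenized RNA pools (0.43 μM; 21-nt variable region) were treated with 2–1250 μM of each biotinyl-aminoacyl-oxazolone. Conditions were 50 μL HEPES/NaCl/KCl/MgCl2/CaCl2 buffer, 5% acetonitrile, pH 6.9–7.0, room temperature, 90 minutes. Catalytic enhancement, the median kA relative to the uncatalyzed rate, was derived from streptavidin capture, qPCR and Illumina sequencing.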

biotinyl-Phe-oxazolone = assay: self-aminoacylation, catalytic enhancement (BFO) (fold over background); higher = more active; k-Seq, kA / k0A0; sequences stand for … in GGGAAUGGAUCCACAUCUACGAAUUC…UUCACUGCAGACUUGACGAAGCUG
In short: as §1

biotinyl-Val-oxazolone = assay: self-aminoacylation, catalytic enhancement (BVO) (fold over background); higher = more active; k-Seq, kA / k0A0; sequences stand for … in GGGAAUGGAUCCACAUCUACGAAUUC…UUCACUGCAGACUUGACGAAGCUG
In short: as §1

biotinyl-Met-oxazolone = assay: self-aminoacylation, catalytic enhancement (BMO) (fold over background); higher = more active; k-Seq, kA / k0A0; sequences stand for … in GGGAAUGGAUCCACAUCUACGAAUUC…UUCACUGCAGACUUGACGAAGCUG
In short: as §1

biotinyl-Ile-oxazolone = assay: self-aminoacylation, catalytic enhancement (BIO) (fold over background); higher = more active; k-Seq, kA / k0A0; sequences stand for … in GGGAAUGGAUCCACAUCUACGAAUUC…UUCACUGCAGACUUGACGAAGCUG
In short: as §1

biotinyl-Trp-oxazolone = assay: self-aminoacylation, catalytic enhancement (BWO) (fold over background); higher = more active; k-Seq, kA / k0A0; sequences stand for … in GGGAAUGGAUCCACAUCUACGAAUUC…UUCACUGCAGACUUGACGAAGCUG
In short: as §1

Row | Sequence | self-aminoacylation (biotinyl-Leu-oxazolone) | self-aminoacylation (biotinyl-Phe-oxazolone) | self-aminoacylation (biotinyl-Val-oxazolone) | self-aminoacylation (biotinyl-Met-oxazolone) | self-aminoacylation (biotinyl-Ile-oxazolone) | self-aminoacylation (biotinyl-Trp-oxazolone)
1 | CUACUUCCAAGAAUCGGUCUG [Fam1A.1 aminoacylation ribozyme variant] | 0.762 | 0.97 | 0.776 | 0.934 | 0.838 | 1.04
2 | AUUACCCUUGUCAUGGAGUGA [Fam2.1 aminoacylation ribozyme variant] | 5.03 | 22.1 | 2.76 | 4.62 | 2.87 | 5.67
3 | AUUGCCCUGGUCAUCGGGUGA [Fam2.1 aminoacylation ribozyme variant] | 67.3 | 317 | 30 | 58.1 | 23.1 | 73.4
4 | UUUCACCUAGGUCGUCGGGUG [Fam2.2 aminoacylation ribozyme variant] | 2.44 | 11.2 | 2.27 | 2.75 | 1.9 | 3
5 | AUUACCCUUGUCAGCGAGUGA [Fam2.1 aminoacylation ribozyme variant] | 6.14 | 28.6 | 3.3 | 5.08 | 2.94 | 6.54
6 | AUUACUCAGGUCAUCGAGUGA [Fam2.1 aminoacylation ribozyme variant] | 3.72 | 13.2 | 2.57 | 3.58 | 2.41 | 4.11
7 | AUUCACCUUGGUCAUUGGGUG [Fam2.2 aminoacylation ribozyme variant] | 3.56 | 21.4 | 2.17 | 2.9 | 2.11 | 3.18
8 | AAGGUUGUUAAUAGUCGCAAG [Fam3.1 aminoacylation ribozyme variant] | 1.69 | 2.51 | 1.39 | 1.72 | 1.86 | 1.53
9 | AUUAACCUAGGCCAUCGGGUG [Fam2.2 aminoacylation ribozyme variant] | 4.62 | 15.1 | 2.45 | 3.21 | 2.31 | 3.52
10 | AUUCACCGAGGUCAUUGGGUG [Fam2.2 aminoacylation ribozyme variant] | 8.02 | 42.6 | 3.88 | 6.99 | 3.83 | 5.88
11 | CUCCUUCACACAAUCGGUCUG [Fam1A.1 aminoacylation ribozyme variant] | 0.686 | 1.55 | 0.985 | 0.799 | 0.907 | 0.895
12 | AUGACCCUGGUCAUGGAGUGA [Fam2.1 aminoacylation ribozyme variant] | 4.81 | 26.2 | 2.73 | 4.69 | 2.56 | 4.08
13 | CUACACUUCAAGCAAGCGGUC [Fam1B.1 aminoacylation ribozyme variant] | 0.772 | 0.583 | 0.637 | 0.62 | 0.719 | 0.541
14 | CUACUUGAACCAAUCGGUCUG [Fam1A.1 aminoacylation ribozyme variant] | 0.941 | 0.74 | 0.879 | 0.841 | 0.821 | 0.582
15 | GCACACUUCAAGCAAUCGCUC [Fam1B.1 aminoacylation ribozyme variant] | 2.82 | 12.2 | 2.92 | 2.84 | 3.18 | 4.76
16 | CUACUUCAAACACUCGCUCUG [Fam1A.1 aminoacylation ribozyme variant] | 0.708 | 1.16 | 0.818 | 1.06 | 0.924 | 0.468
17 | CUACUUCAAAGAAUCGGUCAG [Fam1A.1 aminoacylation ribozyme variant] | 0.601 | 1.48 | 0.658 | 0.574 | 0.652 | 0.818
18 | GAGUUUGCUAAUAGUCGCAAC [Fam3.1 aminoacylation ribozyme variant] | 0.998 | 1.19 | 1.19 | 1.31 | 1.4 | 1.2
19 | AGUCACCUAGGUCAUCGGGCG [Fam2.2 aminoacylation ribozyme variant] | 4.87 | 25.5 | 4.05 | 5.28 | 4.56 | 5.95
20 | AUUACCCUCGGCAUCGAGUGA [Fam2.1 aminoacylation ribozyme variant] | 11.1 | 59.4 | 4.45 | 10.2 | 4.6 | 13.9
21 | AGUCACCUAGGUCAACGGGUG [Fam2.2 aminoacylation ribozyme variant] | 3.22 | 9.17 | 2.08 | 2.25 | 2.57 | 3.02
22 | CUACUUCAAACCAUUGGUCUG [Fam1A.1 aminoacylation ribozyme variant] | 0.782 | 1.03 | 0.891 | 0.726 | 0.883 | 0.564
23 | AUUACCCGGGUGAUCGAGUGA [Fam2.1 aminoacylation ribozyme variant] | 7.76 | 46.1 | 4.2 | 7.21 | 3.2 | 8.54
24 | AUUAGCCUGGUUAUCGAGUGA [Fam2.1 aminoacylation ribozyme variant] | 12.2 | 74.4 | 5.37 | 11.3 | 5.67 | 13.7
25 | AUUCAACUAGCUCAUCGGGUG [Fam2.2 aminoacylation ribozyme variant] | 2 | 15 | 2.45 | 1.74 | 2.04 | 1.82
26 | AUUACCCCGGUCUUCGAGUGA [Fam2.1 aminoacylation ribozyme variant] | 4.72 | 29.3 | 3.4 | 4.71 | 3.2 | 6.46

Row | Sequence | self-aminoacylation (biotinyl-Leu-oxazolone) | self-aminoacylation (biotinyl-Phe-oxazolone) | self-aminoacylation (biotinyl-Val-oxazolone) | self-aminoacylation (biotinyl-Met-oxazolone) | self-aminoacylation (biotinyl-Ile-oxazolone) | self-aminoacylation (biotinyl-Trp-oxazolone)
27 | CAACACUUCAAACAAUCGGUC [Fam1B.1 aminoacylation ribozyme variant] | 2.11 | 78.2 | 1.38 | 1.84 | 1.36 | 38.2
28 | AUUACCCUGUUCAACGAGUGA [Fam2.1 aminoacylation ribozyme variant] | 11.8 | 57 | 5.18 | 11.2 | 5.25 | 13.4
29 | AUUACCCUGGUGAUCUAGUGA [Fam2.1 aminoacylation ribozyme variant] | 6.59 | 45.1 | 3.29 | 7.61 | 3.11 | 8.61
30 | AUUCACCCGGGUCAUCGGGUG [Fam2.2 aminoacylation ribozyme variant] | 6.18 | 42.6 | 4.44 | 5.16 | 4.1 | 6.14
31 | AUUACCUUGGUCAUCGAGCGA [Fam2.1 aminoacylation ribozyme variant] | 1.74 | 1.02 | 1.83 | 1.5 | 1.55 | 1.57
32 | AUUCACCUAGCUCAUCGCGUG [Fam2.2 aminoacylation ribozyme variant] | 6.1 | 34.7 | 3.28 | 4.26 | 2.98 | 5.18
33 | AAGGUUGCUAAUAGCCGCAAG [Fam3.1 aminoacylation ribozyme variant] | 1.31 | 1.49 | 1.28 | 1.06 | 1.57 | 1.41
34 | GCACACUUCAAGCAAGCGGUC [Fam1B.1 aminoacylation ribozyme variant] | 2.06 | 3.91 | 2.54 | 1.93 | 2.42 | 3.01
35 | CCACACGUCAAGCAAUCGGUC [Fam1B.1 aminoacylation ribozyme variant] | 1.17 | 0.848 | 1.65 | 1.16 | 1.11 | 1.16
36 | AAUCACCUAGUUCAUCGGGUG [Fam2.2 aminoacylation ribozyme variant] | 2.59 | 16.3 | 3.16 | 3.33 | 3.01 | 3.72
37 | AAUCACGUAGGUCAUCGGGUG [Fam2.2 aminoacylation ribozyme variant] | 4.02 | 30.4 | 3.77 | 3.19 | 3.09 | 4.86
38 | GAGUUUGCUAAUAGUCCCAAG [Fam3.1 aminoacylation ribozyme variant] | 0.812 | 4.57 | 1.1 | 1.33 | 1.05 | 1.64
39 | AUAACCCUGGUCAUCAAGUGA [Fam2.1 aminoacylation ribozyme variant] | 2.24 | 2.73 | 1.27 | 2.3 | 1.45 | 2.39
40 | AUUCGCCUAUGUCAUCGGGUG [Fam2.2 aminoacylation ribozyme variant] | 6.54 | 30.7 | 3.16 | 5.1 | 3.35 | 4.65
41 | GCACACUUCAAGCAAUUGGUC [Fam1B.1 aminoacylation ribozyme variant] | 1.3 | 2.06 | 1.22 | 1.45 | 1.47 | 1.94
42 | CCACACUUCAUGCAAUCUGUC [Fam1B.1 aminoacylation ribozyme variant] | 0.35 | 0.605 | 0.479 | 0.391 | 0.454 | 0.277
43 | CCACACUUCAAGUAAUCAGUC [Fam1B.1 aminoacylation ribozyme variant] | 0.635 | 4.86 | 0.723 | 0.586 | 0.686 | 1.72
44 | AUUCACCCAGGUCAUGGGGUG [Fam2.2 aminoacylation ribozyme variant] | 13.8 | 67.1 | 5.23 | 10.2 | 5.18 | 8.21
45 | AUUACCCUGGUCUUUGAGUGA [Fam2.1 aminoacylation ribozyme variant] | 8.33 | 41.8 | 4.17 | 7.29 | 4.05 | 9.67
46 | AUUAACCAGGUCAUCGAGUGA [Fam2.1 aminoacylation ribozyme variant] | 5.32 | 22.2 | 2.8 | 5.17 | 3.17 | 6.86
47 | GAAUUUGCUAAUAGUCGCAAG [Fam3.1 aminoacylation ribozyme variant] | 1.38 | 2.52 | 1.53 | 1.51 | 1.81 | 1.79
48 | AUUCACUCAGGUCAUCGGGUG [Fam2.2 aminoacylation ribozyme variant] | 6.71 | 41.3 | 4.16 | 4.85 | 3.48 | 4.79
49 | AUUCCCCUAGCUCAUCGGGUG [Fam2.2 aminoacylation ribozyme variant] | 6.66 | 35.1 | 6.05 | 5.75 | 6.15 | 5.96
50 | AUUCACCUAUGUUAUCGGGUG [Fam2.2 aminoacylation ribozyme variant] | 7.49 | 41.3 | 3.43 | 5.62 | 3.19 | 5.74
51 | CUGCUUCAAACAAUCGGUCUA [Fam1A.1 aminoacylation ribozyme variant] | 2.18 | 80.1 | 1.34 | 1.33 | 1.3 | 38.8
